Here are results for five molecules from patent US20100040616A1 (published 2010).

Assay [1] concerns the target T1, recombinant human CD127 extracellular domain (CD127 ECD) (human) (UniProt P16871).
T1 sequence: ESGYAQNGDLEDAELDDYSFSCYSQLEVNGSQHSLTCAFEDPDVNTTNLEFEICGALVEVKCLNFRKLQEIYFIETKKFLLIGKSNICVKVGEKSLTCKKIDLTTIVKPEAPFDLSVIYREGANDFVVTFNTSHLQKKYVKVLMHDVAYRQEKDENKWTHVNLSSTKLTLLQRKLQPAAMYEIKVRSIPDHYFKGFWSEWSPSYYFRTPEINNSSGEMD
Description: blocking of IL-7/IL-7Rα binding; competitor IL-7; method not given.

In assay [2] the target is T1, recombinant human CD127 extracellular domain (CD127 ECD) (human). The assay is described as follows: SPR (Biacore T100, 25 °C), antibody captured on rabbit anti-mouse IgG, CD127 ECD as analyte. (Surface plasmon resonance follows binding to a sensor surface in real time, without labels.)
Assay [3] has the same target. Description: SPR (Biacore T100), CD127 ECD amine-coupled on CM5, antibody (supernatant material) as analyte.
The target is the same in assay [4]. Description: ELISA: recombinant human CD127 ECD coated at 5 ug/ml, 9B7 hybridoma material titrated, HRP goat anti-mouse IgG detection.
Assay [5] addresses T2, human CD127 expressed on cells (CD127-transfected CHO cells; PBMC and CD4+ T cells in functional assays) (human, UniProt P16871 21-459).
T2 construct: The construct transfected into CHO is not described further; also called CHO-CD127; IL-7Rα expressed on CHO
T2 chain: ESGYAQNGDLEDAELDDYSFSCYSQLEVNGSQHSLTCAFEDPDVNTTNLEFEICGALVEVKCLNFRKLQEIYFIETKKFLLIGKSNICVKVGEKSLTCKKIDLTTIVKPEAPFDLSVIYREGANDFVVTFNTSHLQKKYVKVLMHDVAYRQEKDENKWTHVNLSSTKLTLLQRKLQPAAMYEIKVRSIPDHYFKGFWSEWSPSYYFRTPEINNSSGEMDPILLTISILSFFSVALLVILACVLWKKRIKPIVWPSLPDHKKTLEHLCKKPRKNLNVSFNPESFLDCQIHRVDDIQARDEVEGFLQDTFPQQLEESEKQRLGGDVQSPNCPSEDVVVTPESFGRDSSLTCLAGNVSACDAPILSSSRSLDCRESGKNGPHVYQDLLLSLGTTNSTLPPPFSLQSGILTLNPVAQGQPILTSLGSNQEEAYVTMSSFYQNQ
Description: Flow cytometry cross-competition on CHO-CD127 cells: unlabelled antibody titrated against fluorescence-labelled BD anti-CD127 antibody (#552853). Here is the method:
CHO-CD127 cells were prepared and washed by cold DPBS for 3 times. […] The antibody mixtures were then incubated with the CHO-CD127 cells for 30 min at 4° C. […] (FIG. 15).

For assay [6], the target named is T1, recombinant human CD127 extracellular domain (CD127 ECD) (human). Description: affinity for the IL-7Rα ECD (profile summary; SPR).

Changes are numbered by the printed parent chain.

B1: mAb 1A11 (murine anti-human CD127 monoclonal antibody) (antibody, mouse IgG1, V domains shown)
VH: EVQLQQSGPELLKPGASMKISCKASGYSFTGYTMNWVKQSHGKNLEWIGLINPYNGVTSYNQKFKGKATLTVAKSSSTAYMELLSLTSEDSAVYYCARGDGNYWYFDVWGAGTTVTVSS
VL: EIVLTQSPAITAASLGQKVTITCSASSSVTYMHWYQQKSGTSPKPWIYEISKLASGVPVRFSGSGSGTSYSLTISSMEAEDAAIYYCQEWNYPYTFGGGTKLEIK
The IC50 is the concentration that gives 50% inhibition. Usually Kd stands for the concentration at which binding is half-saturated. The term koff denotes the first-order rate constant of dissociation. As to B1, the IC50 in assay [1] was determined as 1.79 µg/mL. Further, in assay [2], the Kd came to 3.44 nM and the koff stood at 0.000251 s⁻¹.

B2: mAb GR34 (reverse engineered clone of R34.34) (antibody, mouse IgG1, V domains shown)
VH: B1 VH with L12V, N55S, V57I, K63N, A73D, S85N
VL: B1 VL with V3I, T30S, V59A, E89Y
Turning to B2, the IC50 in assay [1] was found to be 2.29 µg/mL. In assay [2], the dissociation constant (Kd) was 15.3 nM and the koff is 0.000875 s⁻¹.

B3: mAb 9B7 (murine anti-human CD127 monoclonal antibody) (antibody, IgG1, V domains shown)
VH: QVQLQESGPGLVAPSQSLSITCTVSGFSLSRYNVHWVRQPPGKGLEWLGMIWDGGSTDYNSALKSRLSITKDNSKSQVFLKMNSLQTDDTAMYYCARNRYESGMDYWGQGTTVTVSS
VL: DIVMTQTPSSLTVTAGEKVTMSCKSSQSLLNSGNRKNYLTWYQQKPGQSPKLLIYWASTRESGVPDRFTGSGSGTDFTLIISSVQAEDLAVYYCQNDYTYPFTFGSGTKLEIKR
What is called EC50 (read off the curve) is the concentration giving half of the maximal effect. In the case of B3, the Kd in assay [3] came out at 0.556 nM. The EC50 (read off the curve) in assay [4] was determined as 0.6 µg/mL.

B4: mAb 6C5 (murine anti-human CD127 monoclonal antibody) (antibody, mouse IgG1, V domains shown)
VH: EVKLLESGGGLVQPGGSLKLSCAASGFAFSAYWMSWVRQAPGKGLEWIGEINPDSSTINCTPSLKDKFIISRDNAKNTLSLQMNKVRSEDTALYYCARRLRPFWYFDVWGAGTTVTVSS
VL: DVLMTQTPLSLPVSLGDQASISCRSSQSIVQSNGNTYLEWYLQKPGQSPKLLIYKVSNRFSGVPDRFSGSGSGTDFTLKISRVEAEDLGVYYCFQGSHVPRTFGGGTKLEIK
notes: also called Antibody 6C5
As a reminder, the kon is a measure of how fast the partners come together. For B4, in assay [2], the Kd is 24.4 nM, the koff was found to be 0.000436 s⁻¹ and the kon came out at 17900 M⁻¹ s⁻¹. Also, the “IC50 (read off the curve)” value in assay [5] was around 70 µg/mL.

B5: mAb 6A3 (murine anti-human CD127 monoclonal antibody) (antibody, mouse IgG1, V domains shown)
VH: DVQLQESGPGLVKPSQSLSLTCTVTGYSITTDYAWNWIRQFPGNKLEWMGYIFYSGSTTYTPSLKSRISITRDTSKNQFFLQLNSVTTEDTATYYCARGGYDVNYFDYWGQGTTLTVSS
VL: DIQMTQSPASQSASLGESVTITCLASQTIGAWLAWYQQKPGKSPQLLIYAATRLADGVPSRFSGSGSGTKFSFKISSLQAEDFVSYYCQQFFSTPWTFGGGTKLEIK
For B5, in assay [6], the Kd amounted to 7.99 nM and the koff worked out at 0.000334 s⁻¹. In assay [1], the IC50 came out at 1.92 µg/mL. In assay [2], the Kd was 7.74 nM, the koff came out at 0.000146 s⁻¹ and the kon worked out at 18900 M⁻¹ s⁻¹.
